Test [1] concerns the target α subunit of the oxygenase component of 3-nitrotoluene dioxygenase (3NTDO-ODS2) from Diaphorobacter sp. strain DS2 (Diaphorobacter sp. strain DS2). Put plainly: crystal structure; oxygenase 3NTDO-ODS2 (α and β co-expressed and co-purified), hanging drop vapor diffusion at 277 K, 0.2M sodium citrate tribasic and 20% PEG 3350 pH 8.3; molecular replacement with 1NDO; 2.9 Å.

The target in test [2] is β subunit of the oxygenase component of 3-nitrotoluene dioxygenase (3NTDO-ODS2) from Diaphorobacter sp. strain DS2 (Diaphorobacter sp. strain DS2). Described as above.

For orientation: stoichiometry N means the number of molecules, sites or subunits per partner or assembly.

For the substance “α subunit of the oxygenase component of 3-nitrotoluene dioxygenase (3NTDO-ODS2) from Diaphorobacter sp. strain DS2 (natural protein)”, the stoichiometry N in test [1] turned out to be 3. The substance “β subunit of the oxygenase component of 3-nitrotoluene dioxygenase (3NTDO-ODS2) from Diaphorobacter sp. strain DS2 (natural protein)” registered a stoichiometry N in test [2] of 3.

The record behind these values is paper PMC5407579.
